Data taken from patent US20140363422A1 (IMMUNOQURE, published 2014).
Read-outs that look alike come from different tables or passages of the source.

Assays:
human IL-17F [1] = biological target: T1, human IL-17F (human, UniProt Q96PD4 31-163); experiment: cell-based or functional assay
T1 sequence (looked up): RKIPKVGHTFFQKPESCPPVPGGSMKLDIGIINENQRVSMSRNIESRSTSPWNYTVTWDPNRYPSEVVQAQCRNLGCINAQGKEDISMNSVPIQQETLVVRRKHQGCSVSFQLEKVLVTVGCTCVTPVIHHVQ

human IL-17F [2] = biological target: T1, human IL-17F; experiment: EC50 in summary table; assay not named, taken as binding ELISA
human IL-17F [3] = biological target: T1, human IL-17F; experiment: ELISA, titration of antibody 9A2 on recombinant human IL17F
human IL-17F [4] = biological target: T1, human IL-17F; experiment: SPR (ProteOn XPR36), antibody captured by anti-human IgG, IL-17F injected
human IL-22 [5] = biological target: T2, human IL-22 (human, UniProt Q9GZX6 34-179); experiment: SPR (ProteOn XPR36), antibody captured by anti-human IgG (L2), IL-22 injected at 100 to 1.23 nM and buffer
T2 construct: also called IL-22(h); interleukin-22
T2 sequence (looked up): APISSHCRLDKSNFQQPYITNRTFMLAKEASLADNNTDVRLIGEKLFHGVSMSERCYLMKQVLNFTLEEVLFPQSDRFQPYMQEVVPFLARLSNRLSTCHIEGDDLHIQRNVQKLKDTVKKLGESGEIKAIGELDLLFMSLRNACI

human IL-22 [6] = biological target: T2, human IL-22; experiment: cell-based or functional assay
human IL-22 [7] = biological target: T2, human IL-22; experiment: EC50 in summary table; assay not named, taken as binding ELISA; human IL-22 (h)
mouse IL-22 = biological target: T3, mouse IL-22 (mouse, UniProt Q9JJY9 34-179); experiment: EC50 in summary table; assay not named, taken as binding ELISA; murine IL-22 (m)
T3 construct: also called murine IL-22; IL-22(m)
T3 sequence (looked up): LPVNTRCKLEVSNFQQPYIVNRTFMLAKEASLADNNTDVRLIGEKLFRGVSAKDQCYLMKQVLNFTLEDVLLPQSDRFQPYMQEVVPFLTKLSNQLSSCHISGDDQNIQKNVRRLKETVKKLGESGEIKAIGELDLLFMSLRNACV

[8] = biological target: T4, IL-17A/IL-17F heterodimer (UniProt Q16552 24-155; Q96PD4 31-163); experiment: cell-based or functional assay
T4 sequence (looked up) 1: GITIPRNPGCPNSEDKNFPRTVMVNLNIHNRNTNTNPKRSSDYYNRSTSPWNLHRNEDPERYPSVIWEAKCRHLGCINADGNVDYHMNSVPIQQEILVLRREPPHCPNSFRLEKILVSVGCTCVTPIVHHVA
T4 sequence (looked up) 2: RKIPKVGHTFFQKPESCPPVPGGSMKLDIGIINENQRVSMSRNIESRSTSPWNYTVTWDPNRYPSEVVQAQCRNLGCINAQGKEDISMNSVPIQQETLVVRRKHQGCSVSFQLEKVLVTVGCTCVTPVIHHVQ

human IL-17A = biological target: T5, human IL-17A (human, UniProt Q16552 24-155); experiment: EC50 in summary table; assay not named, taken as binding ELISA; IL-17A (A)
T5 construct: Bought recombinant protein; also called CTLA-8
T5 sequence (looked up): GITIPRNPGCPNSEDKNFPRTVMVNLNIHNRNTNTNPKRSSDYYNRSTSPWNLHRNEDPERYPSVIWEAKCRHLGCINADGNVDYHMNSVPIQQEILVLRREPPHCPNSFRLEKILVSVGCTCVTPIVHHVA

human IL-17F [9] = biological target: T1, human IL-17F; experiment: EC50 in summary table; assay not named, taken as binding ELISA; IL-17F (F)
human IL-22 [10] = biological target: T2, human IL-22; experiment: SPR (ProteOn XPR36), antibody captured by anti-human IgG (L3), IL-22 injected at 100 to 1.23 nM and buffer
human IL-22 [11] = biological target: T2, human IL-22; experiment: SPR (ProteOn XPR36), antibody captured by anti-human IgG (L1), IL-22 injected at 100 to 1.23 nM and buffer
human IL-22 [12] = biological target: T2, human IL-22; experiment: SPR (ProteOn XPR36), antibody captured by anti-human IgG, IL-22 injected at 100 to 1.23 nM, 1:1 Langmuir fit, grouped
Description: (§1) Data was referenced using the interspot regions of the sensor chip.
(§2) For affinity determination of the antibodies of the present invention SPR measurements were performed using a ProteOn™ XPR36 instrument, according to the instructions of the manufacturer (BIO-RAD; Hercules Calif., USA). First, anti-human IgG was coupled simultaneously on 5 surfaces of the 6×6 interaction array of a GLC sensor chip by EDC/NHS chemistry, no antibody was sixth immobilized on the sixth surface, but the surface was treated with the same activation and deactivation protocol as the other five surfaces. The MABs (ligands) to be tested were injected afterwards into 6 channels of the chip (in the vertical direction) and simultaneously captured at very similar capture efficiency and percentage activity. […] Data was referenced using the interspot regions between the flow channels. […] Binding experiments were repeated twice and data is represented as a mean of two independent experiments.

human IL-22 [13] = biological target: T2, human IL-22; experiment: SPR (ProteOn XPR36), antibody captured by anti-human IgG, IL-22 injected at 100 to 1.23 nM, 1:1 Langmuir fit, mean of two experiments
Description: as §1, §2

human IL-22 [14] = biological target: T2, human IL-22; experiment: EC50 in summary table; assay not named, taken as binding ELISA
human IL-22 [15] = biological target: T2, human IL-22; experiment: SPR (ProteOn XPR36), antibody captured by anti-human IgG, IL-22 injected at 100 to 1.23 nM, 1:1 Langmuir fit, grouped; remark: listed apart in the source
Description: as §1, §2

B1: IL-17F specific antibody 9A2 (antibody, human IgG1, kappa, V domains shown)
VH: EVQLEESGGGLVQPGGSLRLSCAASGFPFSNYEMNWVRQAPGKGLEWISYISVSGGPAHYADSVKGRFTISRDDATKSLFLQMNRLRADDTAVYYCVRREYVTGRNYNYYPYMDVWGTGTTVTVSP
VL: DIQMTQSPSSLSASVGDRVTITCRASQTISDYLNWYQHKPGEAPKLLIYSASTLQRGVPSRFSGSGSGTDFVFTISSLQSDDFATYYCQQTSSTALTFGGGTKVEVKR
notes: also called a-IL17-9A2
IC50 Neutralization (ng/ml); GRO-alpha production by NCTC 2544 keratinocytes (human IL-17F [1]): 45 ng/mL
EC50 (human IL-17F [2]): 0.003 µg/mL
EC50 (read off the curve) (human IL-17F [3]): ~0.02 µg/mL
kon (human IL-17F [4]): ~800000 M⁻¹ s⁻¹
binding result (human IL-22 [5]): no binding (tested: 100 nM)

B2: IL-22 specific antibody 41D11 (antibody, human IgG1, lambda, V domains shown)
VH: QVQLHESGPGLVKPSETLSVTCSLSGGSISSSSHLWAWIRQPPEKGLEYIGRIHYRGSVSYNPSLKSRAAISVDTAKNQFSLTLSAVTAADTSFYYCARLDMGAIDKWGQGTLVIVSS
V domain: QPVLTQSPSASASLGASIKLTCTLSSGHSNYDIAWHQQQSGKGPRFLMRVNNGGSHNKGDGIPDRFSGSSSGAERYLTISSLQSEDEADYYCQTWGTGTHVFGTG
notes: also called a-IL-22-41D11
IC50 Neutralization (ng/ml); IL-10 production by Colo205 cells (human IL-22 [6]): 38 ng/mL
EC50 (human IL-22 [7]): 0.005 µg/mL
EC50 (mouse IL-22): 0.06 µg/mL

B3: IL-17F and IL-17A specific antibody 17E3 (antibody, human IgG1, kappa, V domains shown)
VH: QVQLVQSGAEVAKPGASVRLSCKASGFSFIKYYMHWVRQAPGQGLEWMGVIEPTGGGTSSAQKFRDRVTLSRDTSTATVHLEVSRLTLEDTGIYFCVRDSIYCKHGTCHRTVIDAFDIWGQGTAVTVSS
VL: DIQMTQSPSSLSASVGDRVTITCRSSQDIKNDLAWYQQKPGKAPERLIYAASNLQSGVPSRFSGSGSGTEFSLTISGLQPEDFATYYCLQHNSYPLLTFGGGTKVEIKR
notes: also called a-IL17-17E3
IC50 Neutralization (ng/ml); GRO-alpha production by NCTC 2544 keratinocytes [8]: 12 ng/mL
IC50 Neutralization (ng/ml); GRO-alpha production by NCTC 2544 keratinocytes (human IL-17F [1]): 15 ng/mL
kon (human IL-17F [4]): ~300000 M⁻¹ s⁻¹
EC50 (human IL-17A): 0.824 µg/mL
EC50 (human IL-17F [9]): 0.002 µg/mL
binding result (human IL-22 [10]): no binding (tested: 100 nM)

B4: IL-17F specific antibody 24D3 (antibody, human IgG1, lambda, V domains shown)
VH: EVKLEESGGDLVKPGGSLRLSCVASGFTFGTAWMSWVRQAPGKGLEWVGRISNKDTGGRIDYAAPVRGRFAISRDDSKATLFLQMNSLKTEDTAVYFCTTNFYDVLTGDHVDYWGQGTVVVVSS
VL: SYELTQPPSVSVSPGETARIPCSGETLPKKLVYWYQQKPGQAPVLMIYKDSERPSRISERFSGSNSGTMASLTISGVQAEDEADYYCQTSDSSGVVFGGGTKLTVLG
notes: also called a-IL17-24D3; aIL-17 24D3
IC50 Neutralization (ng/ml); GRO-alpha production by NCTC 2544 keratinocytes [8]: 6 to 14 ng/mL
IC50 Neutralization (ng/ml); GRO-alpha production by NCTC 2544 keratinocytes (human IL-17F [1]): 12 to 22 ng/mL
EC50 (human IL-17F [2]): 0.002 µg/mL
kon (human IL-17F [4]): ~600000 M⁻¹ s⁻¹
binding result (human IL-22 [11]): no binding (tested: 100 nM)

B5: IL-22 specific antibody 30G1 (antibody, human IgG1, kappa, V domains shown)
VH: EVQLLESGGGLVQPGGSLRLSCAASGFTFSTYAMSWVRQAPGKGLEWVSTITSSGGATYHADSVKGRLTISRDNSKNTLYLEMNSLRVEDTAVYYCAKDWGRTVYAVIKDLDIWGQGTLVTVSS
VL: EIVMTQSPAILSVSPGERATLSCRASQSVSNYLAWFQQKPGQAPRLLIYDTSKRATGTPARFSGSGSGTDFTLTISSLEPEDFAVYFCQQRSDWPQYTFGQGTKLEIKR
notes: also called aIL-22 30G1
binding result (human IL-17F [4]): no binding (tested: 100 nM to 1.23 nM)
EC50 (human IL-22 [7]): 0.003 µg/mL
EC50 (mouse IL-22): 0.015 µg/mL
Kd (human IL-22 [12]): 0.0352 nM
koff (human IL-22 [12]): 1.55e-05 s⁻¹
kon (human IL-22 [12]): 441000 M⁻¹ s⁻¹
Kd (human IL-22 [13]): 0.0365 nM

B6: IL-22 specific antibody 35G11 (antibody, human IgG4, lambda, V domains shown)
VH: QVQLVQSGSELRRPGASVNISCKASGYGFNTYAMNWVRQAPGQGPEWMGWINTDTGDPTYAQGFTGRFAFFLDTSASTAFLQITRLTGEDTAVYFCARTRNNWNGVYYHYSGLDVWGQGTTVTVSS
VL: QSVLTQPPSASGTPGQTVTISCSGSSPNLGDNYVYWYHQVPGTAPKLLIFRNTQRPSGVTDRFSGSKYGTSASLAISDLRSDDEGDFYCASWDDRLSRLVFGGGTKLTVLG
notes: also called a-IL-22-35G11; aIL-22 35G11
EC50 (human IL-22 [14]): 0.007 µg/mL
binding result (human IL-17F [4]): no binding (tested: 100 nM to 1.23 nM)
Kd (human IL-22 [15]): 0.0457 nM
koff (human IL-22 [15]): 8.09e-05 s⁻¹
kon (human IL-22 [15]): 1.77e+06 M⁻¹ s⁻¹
Kd (human IL-22 [13]): 0.039 nM

B7: IL-22 specific antibody 51G4 (antibody, human IgG2, lambda, V domains shown)
VH: EVQLVQSGAEVKKPGASVKVSCKTSGYKFALYDIHWVRQAPGQGLEWMGWINAANGDTEYSQKFEGRVTITRDTSATTVYMELNSLTYGDTAVYYCAREEGLYNWFDPWGQGTLVTVSS
VL: SYELTQDPAVSVALGQTVRITCQGDSLRIYYANWYQQKPGQAPVLVIYGKSNRPSGIPDRFSASSSGNTASLTITGAQAEDEADYYCNSRDSSDKHPVPFGGGTKLTVLS
notes: also called a-IL-22-51G4
EC50 (human IL-22 [14]): 0.067 to 0.148 µg/mL
